Data as given in patent US20260184748A1 (University of Pennsylvania, published 2026).
Where no end group is shown, it is not given here.

Tests used:
Assay in all cases: cell-based or functional assay
CHRM4 = target: T1, CHRM4 (UniProt P08173 1-479)
T1 sequence (looked up): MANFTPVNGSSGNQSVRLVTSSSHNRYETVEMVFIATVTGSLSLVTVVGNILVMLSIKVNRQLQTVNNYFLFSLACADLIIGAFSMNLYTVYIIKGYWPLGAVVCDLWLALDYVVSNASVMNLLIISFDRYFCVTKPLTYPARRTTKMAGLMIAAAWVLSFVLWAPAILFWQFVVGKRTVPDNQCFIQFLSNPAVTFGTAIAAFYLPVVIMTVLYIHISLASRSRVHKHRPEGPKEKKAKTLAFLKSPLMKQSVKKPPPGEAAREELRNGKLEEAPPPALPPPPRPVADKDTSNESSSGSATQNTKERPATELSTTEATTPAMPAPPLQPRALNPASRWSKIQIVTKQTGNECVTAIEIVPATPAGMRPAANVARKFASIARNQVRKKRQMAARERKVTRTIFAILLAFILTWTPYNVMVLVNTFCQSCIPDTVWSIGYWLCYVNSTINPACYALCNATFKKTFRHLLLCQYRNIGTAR

CX3CR1 = target: T2, CX3CR1 (UniProt P49238 1-355)
T2 sequence (looked up): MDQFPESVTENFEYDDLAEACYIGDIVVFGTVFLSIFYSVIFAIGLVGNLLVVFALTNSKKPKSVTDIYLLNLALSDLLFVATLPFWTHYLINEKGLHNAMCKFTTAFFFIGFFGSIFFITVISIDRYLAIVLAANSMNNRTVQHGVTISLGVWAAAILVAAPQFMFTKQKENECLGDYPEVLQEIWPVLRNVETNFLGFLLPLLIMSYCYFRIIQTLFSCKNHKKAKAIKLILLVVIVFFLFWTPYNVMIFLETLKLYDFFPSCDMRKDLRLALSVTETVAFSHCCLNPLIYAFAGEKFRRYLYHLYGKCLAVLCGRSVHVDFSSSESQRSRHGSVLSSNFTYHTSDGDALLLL

OPRM1 = OPRM1 (UniProt P35372 1-400)
Chain of OPRM1 (P35372 whole entry): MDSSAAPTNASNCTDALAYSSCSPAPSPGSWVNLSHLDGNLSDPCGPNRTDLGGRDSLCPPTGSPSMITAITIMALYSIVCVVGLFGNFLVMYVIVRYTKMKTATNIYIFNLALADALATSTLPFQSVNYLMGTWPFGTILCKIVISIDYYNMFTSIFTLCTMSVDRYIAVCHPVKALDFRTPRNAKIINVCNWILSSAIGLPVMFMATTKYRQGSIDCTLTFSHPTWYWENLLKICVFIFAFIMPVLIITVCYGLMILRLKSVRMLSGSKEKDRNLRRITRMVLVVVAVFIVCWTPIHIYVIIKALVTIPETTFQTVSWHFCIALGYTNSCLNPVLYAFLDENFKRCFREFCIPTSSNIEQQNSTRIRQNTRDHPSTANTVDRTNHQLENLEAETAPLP

GHSR = GHSR (UniProt Q92847 1-366)
Chain of GHSR (Q92847 whole entry): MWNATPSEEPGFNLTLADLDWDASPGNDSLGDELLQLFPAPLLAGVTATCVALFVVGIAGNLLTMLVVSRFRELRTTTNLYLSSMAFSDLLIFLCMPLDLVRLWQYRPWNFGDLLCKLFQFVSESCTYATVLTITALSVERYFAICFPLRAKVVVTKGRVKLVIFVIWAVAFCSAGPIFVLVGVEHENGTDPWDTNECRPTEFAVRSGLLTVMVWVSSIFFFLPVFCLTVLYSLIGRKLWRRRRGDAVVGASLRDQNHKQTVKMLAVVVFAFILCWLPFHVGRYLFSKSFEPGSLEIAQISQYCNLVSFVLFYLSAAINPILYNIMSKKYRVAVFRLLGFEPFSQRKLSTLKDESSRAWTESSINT

HTR1B = HTR1B (UniProt P28222 1-390)
Chain of HTR1B (P28222 whole entry): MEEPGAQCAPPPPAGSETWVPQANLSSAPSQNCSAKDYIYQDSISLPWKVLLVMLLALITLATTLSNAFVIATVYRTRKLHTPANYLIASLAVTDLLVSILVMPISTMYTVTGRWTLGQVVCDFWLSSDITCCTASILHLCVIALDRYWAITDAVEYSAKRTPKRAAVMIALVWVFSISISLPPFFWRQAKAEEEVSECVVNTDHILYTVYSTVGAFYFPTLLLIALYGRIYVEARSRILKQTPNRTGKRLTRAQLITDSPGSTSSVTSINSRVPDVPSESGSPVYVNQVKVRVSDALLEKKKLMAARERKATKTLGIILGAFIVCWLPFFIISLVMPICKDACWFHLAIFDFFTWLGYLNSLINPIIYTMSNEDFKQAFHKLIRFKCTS

HTR1A = target: T3, HTR1A (UniProt P08908 1-422)
T3 sequence (looked up): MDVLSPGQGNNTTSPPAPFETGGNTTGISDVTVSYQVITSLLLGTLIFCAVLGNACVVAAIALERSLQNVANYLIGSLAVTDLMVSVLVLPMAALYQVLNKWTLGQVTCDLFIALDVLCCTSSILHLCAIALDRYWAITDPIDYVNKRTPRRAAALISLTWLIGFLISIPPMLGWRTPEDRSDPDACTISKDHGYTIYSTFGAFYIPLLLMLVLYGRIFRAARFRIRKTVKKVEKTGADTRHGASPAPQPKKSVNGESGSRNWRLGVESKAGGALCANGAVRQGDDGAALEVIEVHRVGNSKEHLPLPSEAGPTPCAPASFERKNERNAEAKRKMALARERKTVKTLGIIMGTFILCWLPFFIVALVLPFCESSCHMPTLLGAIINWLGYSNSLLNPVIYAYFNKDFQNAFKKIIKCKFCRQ

P2RY2 = P2RY2 (UniProt P41231 1-377)
Chain of P2RY2 (P41231 whole entry): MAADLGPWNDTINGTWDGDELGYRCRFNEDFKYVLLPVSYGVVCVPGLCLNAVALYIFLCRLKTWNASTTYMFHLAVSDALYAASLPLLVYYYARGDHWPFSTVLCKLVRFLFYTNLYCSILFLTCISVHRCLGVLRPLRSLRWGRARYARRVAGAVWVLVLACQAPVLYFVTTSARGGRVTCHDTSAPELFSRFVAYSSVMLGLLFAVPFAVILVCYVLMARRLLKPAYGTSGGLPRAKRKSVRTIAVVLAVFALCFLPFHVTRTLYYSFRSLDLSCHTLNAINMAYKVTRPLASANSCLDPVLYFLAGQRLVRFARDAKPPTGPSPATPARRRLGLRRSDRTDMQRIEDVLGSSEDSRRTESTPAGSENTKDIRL

AVPR1A = AVPR1A (UniProt P37288 1-418)
Chain of AVPR1A (P37288 whole entry): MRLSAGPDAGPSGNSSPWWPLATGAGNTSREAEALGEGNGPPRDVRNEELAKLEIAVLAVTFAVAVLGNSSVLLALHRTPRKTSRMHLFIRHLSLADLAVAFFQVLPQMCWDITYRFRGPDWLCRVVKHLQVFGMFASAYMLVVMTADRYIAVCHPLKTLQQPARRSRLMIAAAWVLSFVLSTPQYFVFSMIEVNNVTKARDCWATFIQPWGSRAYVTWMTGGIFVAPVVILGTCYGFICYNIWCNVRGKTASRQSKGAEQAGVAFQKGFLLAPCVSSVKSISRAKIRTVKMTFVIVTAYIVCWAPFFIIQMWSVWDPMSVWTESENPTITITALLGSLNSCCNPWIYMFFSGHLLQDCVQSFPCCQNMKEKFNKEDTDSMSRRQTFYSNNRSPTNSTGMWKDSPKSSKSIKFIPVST

TACR2 = target: T4, TACR2 (UniProt P21452 1-398)
T4 sequence (looked up): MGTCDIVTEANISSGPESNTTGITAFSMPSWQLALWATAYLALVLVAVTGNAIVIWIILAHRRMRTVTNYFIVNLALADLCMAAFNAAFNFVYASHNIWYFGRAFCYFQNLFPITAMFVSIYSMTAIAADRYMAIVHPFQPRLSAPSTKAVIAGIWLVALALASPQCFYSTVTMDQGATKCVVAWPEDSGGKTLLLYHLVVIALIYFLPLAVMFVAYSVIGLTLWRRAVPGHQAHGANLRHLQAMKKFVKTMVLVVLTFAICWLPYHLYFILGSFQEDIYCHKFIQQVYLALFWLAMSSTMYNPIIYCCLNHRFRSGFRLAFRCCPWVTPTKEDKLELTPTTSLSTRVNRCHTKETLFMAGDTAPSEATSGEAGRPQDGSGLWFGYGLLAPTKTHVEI

PTHR1 = target: T5, PTHR1 (UniProt Q03431 27-593)
T5 sequence (looked up): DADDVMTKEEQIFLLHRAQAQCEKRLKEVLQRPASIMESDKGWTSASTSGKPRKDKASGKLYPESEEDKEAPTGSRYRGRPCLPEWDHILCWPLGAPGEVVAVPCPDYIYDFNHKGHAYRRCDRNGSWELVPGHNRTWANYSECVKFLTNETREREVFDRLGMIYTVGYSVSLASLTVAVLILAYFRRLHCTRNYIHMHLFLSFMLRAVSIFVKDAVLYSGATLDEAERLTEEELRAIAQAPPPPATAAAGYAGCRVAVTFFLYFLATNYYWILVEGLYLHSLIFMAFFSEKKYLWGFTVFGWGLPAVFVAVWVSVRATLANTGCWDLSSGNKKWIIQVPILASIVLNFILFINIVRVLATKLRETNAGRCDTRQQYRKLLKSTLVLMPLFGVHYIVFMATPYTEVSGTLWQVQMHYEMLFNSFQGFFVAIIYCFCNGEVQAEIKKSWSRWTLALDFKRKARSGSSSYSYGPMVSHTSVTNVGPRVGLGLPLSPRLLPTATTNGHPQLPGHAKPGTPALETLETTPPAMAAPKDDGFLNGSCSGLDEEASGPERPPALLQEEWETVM

DRD1 = DRD1 (UniProt P21728 1-446)
Chain of DRD1 (P21728 whole entry): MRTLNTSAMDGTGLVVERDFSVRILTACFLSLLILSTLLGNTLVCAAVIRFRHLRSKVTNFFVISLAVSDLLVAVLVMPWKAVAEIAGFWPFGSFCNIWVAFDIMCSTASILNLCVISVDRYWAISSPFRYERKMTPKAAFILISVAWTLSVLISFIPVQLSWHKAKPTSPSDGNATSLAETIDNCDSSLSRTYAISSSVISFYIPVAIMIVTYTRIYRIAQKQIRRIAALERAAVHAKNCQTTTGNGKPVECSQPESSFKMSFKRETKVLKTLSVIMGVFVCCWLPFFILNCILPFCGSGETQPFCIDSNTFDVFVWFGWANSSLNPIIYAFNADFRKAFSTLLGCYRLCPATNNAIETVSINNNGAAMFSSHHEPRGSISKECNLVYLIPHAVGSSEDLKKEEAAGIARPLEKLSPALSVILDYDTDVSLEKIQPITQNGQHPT

HRH1 = HRH1 (UniProt P35367 1-487)
Chain of HRH1 (P35367 whole entry): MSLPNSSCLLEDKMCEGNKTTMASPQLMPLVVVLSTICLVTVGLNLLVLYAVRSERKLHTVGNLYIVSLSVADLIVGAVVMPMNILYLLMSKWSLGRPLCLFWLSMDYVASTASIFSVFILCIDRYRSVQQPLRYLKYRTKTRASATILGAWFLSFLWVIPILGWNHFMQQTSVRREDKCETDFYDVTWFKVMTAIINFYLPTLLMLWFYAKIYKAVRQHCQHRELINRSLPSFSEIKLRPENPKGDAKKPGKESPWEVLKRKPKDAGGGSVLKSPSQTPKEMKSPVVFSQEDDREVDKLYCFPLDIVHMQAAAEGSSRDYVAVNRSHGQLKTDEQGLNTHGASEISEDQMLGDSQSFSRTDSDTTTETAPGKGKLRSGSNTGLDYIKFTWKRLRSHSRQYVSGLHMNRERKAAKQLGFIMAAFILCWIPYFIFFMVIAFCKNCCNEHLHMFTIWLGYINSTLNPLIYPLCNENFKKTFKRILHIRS

ADRB1 = ADRB1 (UniProt P08588 1-477)
Chain of ADRB1 (P08588 whole entry): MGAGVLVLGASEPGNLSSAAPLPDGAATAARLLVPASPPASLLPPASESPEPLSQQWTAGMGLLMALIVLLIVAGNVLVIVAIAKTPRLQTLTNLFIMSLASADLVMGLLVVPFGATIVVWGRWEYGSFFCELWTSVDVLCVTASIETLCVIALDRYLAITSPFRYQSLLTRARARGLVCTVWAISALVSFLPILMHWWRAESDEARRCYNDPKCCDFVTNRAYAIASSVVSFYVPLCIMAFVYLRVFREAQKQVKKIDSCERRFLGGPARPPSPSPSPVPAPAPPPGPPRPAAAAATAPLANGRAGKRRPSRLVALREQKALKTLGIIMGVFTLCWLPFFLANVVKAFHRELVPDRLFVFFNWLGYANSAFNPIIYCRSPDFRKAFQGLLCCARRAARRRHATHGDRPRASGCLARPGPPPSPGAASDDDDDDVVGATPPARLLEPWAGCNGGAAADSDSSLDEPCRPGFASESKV

NPFFR1 = NPFFR1 (UniProt Q9GZQ6 1-430)
Chain of NPFFR1 (Q9GZQ6 whole entry): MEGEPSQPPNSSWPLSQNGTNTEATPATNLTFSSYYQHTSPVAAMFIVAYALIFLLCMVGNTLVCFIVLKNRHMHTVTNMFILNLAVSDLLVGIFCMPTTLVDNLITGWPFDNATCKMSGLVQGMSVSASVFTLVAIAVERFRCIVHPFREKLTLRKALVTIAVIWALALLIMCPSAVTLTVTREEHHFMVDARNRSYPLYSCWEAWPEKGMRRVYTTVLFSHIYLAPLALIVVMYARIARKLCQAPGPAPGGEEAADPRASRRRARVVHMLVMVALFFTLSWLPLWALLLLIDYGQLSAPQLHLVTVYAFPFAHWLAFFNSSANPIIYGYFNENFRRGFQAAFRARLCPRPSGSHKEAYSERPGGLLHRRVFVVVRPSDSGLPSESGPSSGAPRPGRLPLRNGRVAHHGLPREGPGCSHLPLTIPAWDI

PTGFR = PTGFR (UniProt P43088 1-359)
Chain of PTGFR (P43088 whole entry): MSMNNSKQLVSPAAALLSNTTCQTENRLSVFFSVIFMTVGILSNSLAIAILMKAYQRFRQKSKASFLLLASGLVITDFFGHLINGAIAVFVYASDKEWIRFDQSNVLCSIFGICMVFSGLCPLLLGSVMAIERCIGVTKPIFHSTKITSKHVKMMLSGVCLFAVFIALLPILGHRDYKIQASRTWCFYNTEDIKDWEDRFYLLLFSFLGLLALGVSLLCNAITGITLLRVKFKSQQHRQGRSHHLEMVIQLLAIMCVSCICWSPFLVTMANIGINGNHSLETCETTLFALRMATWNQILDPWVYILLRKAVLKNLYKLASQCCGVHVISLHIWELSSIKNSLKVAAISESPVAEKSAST

## QATVGDVNTDRPGLLDLK (also: synthesised on Rink amide resin, C-terminal amide not given here outright) [octadecaneuropeptide (ODN)]
CHRM4
  % Activity, arrestin, antagonist mode, 2.5 uM: 5.8%
CX3CR1
  % Activity, arrestin, antagonist mode, 2.5 uM: -0.8%
OPRM1
  % Activity, arrestin, antagonist mode, 2.5 uM: -21.1%
GHSR
  % Activity, arrestin, antagonist mode, 2.5 uM: -7.4%
HTR1B
  % Activity, arrestin, antagonist mode, 2.5 uM: -11.9%
HTR1A
  % Activity, arrestin, antagonist mode, 2.5 uM: -6.2%
P2RY2
  % Activity, arrestin, antagonist mode, 2.5 uM: -5.2%
AVPR1A
  % Activity, arrestin, antagonist mode, 2.5 uM: -2.4%
TACR2
  % Activity, arrestin, antagonist mode, 2.5 uM: 8.3%
PTHR1
  % Activity, arrestin, antagonist mode, 2.5 uM: -5.7%
DRD1
  % Activity, arrestin, antagonist mode, 2.5 uM: 5.7%
HRH1
  % Activity, arrestin, antagonist mode, 2.5 uM: -38.5%
ADRB1
  % Activity, arrestin, antagonist mode, 2.5 uM: 12.6%
NPFFR1
  % Activity, arrestin, antagonist mode, 2.5 uM: -4.2%
PTGFR
  % Activity, arrestin, antagonist mode, 2.5 uM: -8.4%
